Measurements published in patent US20250034268A1.

How the values were obtained:
[1] = target: human BCMA expressed on the cell surface (human) (UniProt Q02223); test: flow cytometry on AMO1 cells
[2] = target: human BCMA expressed on the cell surface (human) (UniProt Q02223); test: flow cytometry on L363 cells
[3] = target: human BCMA expressed on the cell surface (human) (UniProt Q02223); test: flow cytometry on H929 cells
[4] = target: human BCMA expressed on the cell surface (human) (UniProt Q02223); test: flow cytometry on U266 cells
[5] = target: human BCMA expressed on the cell surface (human) (UniProt Q02223); test: flow cytometry on MM.1s cells
[6] = target: cynomolgus monkey BCMA expressed on CHO GS cells (cynomolgus monkey); test: flow cytometry on cynoBCMA-CHO-GS cells
[7] = target: human BCMA expressed on the cell surface (human) (UniProt Q02223); test: flow cytometry on hBCMA-CHO-GS cells
[8] = target: human BCMA expressed on the cell surface (human) (UniProt Q02223); test: flow cytometry on RPMI8226 cells
[9] = target: mouse BCMA expressed on CHO GS cells (mouse) (UniProt O88472); test: flow cytometry on mBCMA-CHO-GS cells
Sequence of mouse BCMA expressed on CHO GS cells (mouse) (O88472 whole entry): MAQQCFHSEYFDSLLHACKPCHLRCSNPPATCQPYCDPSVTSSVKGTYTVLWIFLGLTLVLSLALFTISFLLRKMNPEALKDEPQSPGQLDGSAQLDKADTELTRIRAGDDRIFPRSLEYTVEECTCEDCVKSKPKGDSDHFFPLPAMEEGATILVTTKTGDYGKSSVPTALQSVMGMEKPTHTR

Sequence of human BCMA expressed on the cell surface (human) (Q02223 whole entry): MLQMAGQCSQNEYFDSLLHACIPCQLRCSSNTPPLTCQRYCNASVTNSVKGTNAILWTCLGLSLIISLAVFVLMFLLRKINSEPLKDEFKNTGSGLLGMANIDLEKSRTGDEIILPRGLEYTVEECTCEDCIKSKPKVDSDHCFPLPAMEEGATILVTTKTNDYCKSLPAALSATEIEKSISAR
Sequence of cynomolgus monkey BCMA expressed on CHO GS cells (cynomolgus monkey) (chain, as listed by the source): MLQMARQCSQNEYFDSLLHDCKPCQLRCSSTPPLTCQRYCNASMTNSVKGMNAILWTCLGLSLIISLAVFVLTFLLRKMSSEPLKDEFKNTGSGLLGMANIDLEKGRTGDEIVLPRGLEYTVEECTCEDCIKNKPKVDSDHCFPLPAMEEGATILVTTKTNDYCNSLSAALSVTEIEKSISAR

- EC50 [1]: 12.9 nM
- EC50 [2]: 10.4 nM
- EC50 [3]: 7.69 nM
- EC50 [4]: 8.74 nM
- EC50 [5]: 7.54 nM
- EC50 [6]: 10 nM
- EC50 [7]: 5 nM
- EC50 [8]: 5.97 nM
- EC50 [9]: 132 nM
Substance: GSK PG antibody (BCMA antibody clone J6M0 of GSK, P329G human IgG1)
